Publication PMC4047408, “Assembly of the Respiratory Mucin MUC5B” (The Journal of Biological Chemistry, 2014)

Experiments:
[1] = target: disulfide-linked NT5B dimer (human) (UniProt Q9HC84); assay: SEC-MALLS; NT5B in 5 mM CaCl2 at pH 6, Superose 6 10/300, 25 mM Hepes, 150 mM NaCl; recovery in the dimer peak compared with 5 mM EGTA at pH 6
[2] = target: disulfide-linked NT5B dimer (human) (UniProt Q9HC84); assay: AUC; sedimentation velocity, 35,000 rpm, 20 °C; NT5B in 5 mM CaCl2 at pH 6; reversed by 10 mM EGTA and pH 7.4
[3] = target: disulfide-linked NT5B dimer (human) (UniProt Q9HC84); assay: AUC; sedimentation velocity, 35,000 rpm, 20 °C; NT5B in 5 mM CaCl2 at pH 5
[4] = target: recombinant MUC5B N terminus D1-D2-D′-D3 (NT5B), from 293-EBNA cells (human) (UniProt Q9HC84); assay: AUC; sedimentation velocity, 35,000 rpm, 20 °C; NT5B in 5 mM EGTA at pH 7.4 or pH 6, or 5 mM CaCl2 at pH 7.4
[5] = target: recombinant MUC5B N terminus D1-D2-D′-D3 (NT5B), from 293-EBNA cells (human) (UniProt Q9HC84); assay: SEC-MALLS; Superose 6 10/300, 25 mM Hepes, 150 mM NaCl, with 5 mM CaCl2 or 5 mM EGTA at pH 7.4 or pH 6, room temperature, after overnight incubation at 4 °C
[6] = target: recombinant MUC5B N terminus D1-D2-D′-D3 (NT5B), from 293-EBNA cells (human) (UniProt Q9HC84); assay: SDS-PAGE, reduced and nonreduced; purified recombinant proteins from 293-EBNA conditioned medium; shows disulfide-linked dimers
[7] = target: recombinant MUC5B N terminus D1-D2-D′-D3 (NT5B), from A549 cells (human) (UniProt Q9HC84); assay: SDS-PAGE (reduced and nonreduced) and Western blot with anti-His antibody; conditioned medium of transiently transfected A549 cells
[8] = target: the molecule itself; assay: SDS-PAGE, reduced and nonreduced; purified recombinant proteins from 293-EBNA conditioned medium; shows disulfide-linked dimers

disulfide-linked NT5B dimer (from UniProt Q9HC84 26-1304) (complex)
reduction of protein recovered in the dimer peak (5 mM CaCl2 pH 6 against 5 mM EGTA pH 6) [1]: 15%
multimeric fraction (peak III), percent of total [2]: 29 % of total
higher order multimeric species, percent of total [3]: 44 % of total

recombinant MUC5B N terminus D1-D2-D′-D3 (NT5B), from 293-EBNA cells (from UniProt Q9HC84 26-1304) (domain or fragment)
stoichiometry N [4]: 2
stoichiometry N [5]: 2
stoichiometry N [6]: 2

recombinant MUC5B N terminus D1-D2-D′-D3 (NT5B), from A549 cells (from UniProt Q9HC84 26-1304) (domain or fragment)
stoichiometry N [7]: 2

B1: recombinant MUC5B D3 domain (domain or fragment, human, UniProt Q9HC84 894-1304, looked up)
chain: TCVAYGDGHFITFDGDRYSFEGSCEYILAQDYCGDNTTHGTFRIVTENIPCGTTGTTCSKAIKLFVESYELILQEGTFKAVARGPGGDPPYKIRYMGIFLVIETHGMAVSWDRKTSVFIRLHQDYKGRVCGLCGNFDDNAINDFATRSRSVVGDALEFGNSWKLSPSCPDALAPKDPCTANPFRKSWAQKQCSILHGPTFAACRSQVDSTKYYEACVNDACACDSGGDCECFCTAVAAYAQACHDAGLCVSWRTPDTCPLFCDFYNPHGGCEWHYQPCGAPCLKTCRNPSGHCLVDLPGLEGCYPKCPPSQPFFNEDQMKCVAQCGCYDKDGNYYDVGARVPTAENCQSCNCTPSGIQCAHSLEACTCTYEDRTYSYQDVIYNTTDGLGACLIAICGSNGTIIRKAVACPG
notes: MUC5B, human, D3 domain, residues 894-1304; also called D3 protein
stoichiometry N [8]: 2

B2: recombinant MUC5B D2-D′-D3 domains (domain or fragment, human, UniProt Q9HC84 425-1304, looked up)
chain: CSVQGGAHISTYDEKLYDLHGDCSYVLSKKCADSSFTVLAELRKCGLTDNENCLKAVTLSLDGGDTAIRVQADGGVFLNSIYTQLPLSAANITLFTPSSFFIVVQTGLGLQLLVQLVPLMQVFVRLDPAHQGQMCGLCGNFNQNQADDFTALSGVVEATGAAFANTWKAQAACANARNSFEDPCSLSVENENYARHWCSRLTDPNSAFSRCHSIINPKPFHSNCMFDTCNCERSEDCLCAALSSYVHACAAKGVQLSDWRDGVCTKYMQNCPKSQRYAYVVDACQPTCRGLSEADVTCSVSFVPVDGCTCPAGTFLNDAGACVPAQECPCYAHGTVLAPGEVVHDEGAVCSCTGGKLSCLGASLQKSTGCAAPMVYLDCSNSSAGTPGAECLRSCHTLDVGCFSTHCVSGCVCPPGLVSDGSGGCIAEEDCPCVHNEATYKPGETIRVDCNTCTCRNRRWECSHRLCLGTCVAYGDGHFITFDGDRYSFEGSCEYILAQDYCGDNTTHGTFRIVTENIPCGTTGTTCSKAIKLFVESYELILQEGTFKAVARGPGGDPPYKIRYMGIFLVIETHGMAVSWDRKTSVFIRLHQDYKGRVCGLCGNFDDNAINDFATRSRSVVGDALEFGNSWKLSPSCPDALAPKDPCTANPFRKSWAQKQCSILHGPTFAACRSQVDSTKYYEACVNDACACDSGGDCECFCTAVAAYAQACHDAGLCVSWRTPDTCPLFCDFYNPHGGCEWHYQPCGAPCLKTCRNPSGHCLVDLPGLEGCYPKCPPSQPFFNEDQMKCVAQCGCYDKDGNYYDVGARVPTAENCQSCNCTPSGIQCAHSLEACTCTYEDRTYSYQDVIYNTTDGLGACLIAICGSNGTIIRKAVACPG
notes: MUC5B, human, D2-D′-D3 domains, residues 425-1304
stoichiometry N [8]: 2
